# B1: Bacillus stearothermophilus PcrA helicase (enzyme)
# chain: MNFLSEQLLAHLNKEQQEAVRTTEGPLLIMAGAGSGKTRVLTHRIAYLMAEKHVAPWNILAITFTNKAAREMRERVQSLLGGAAEDVWISTFHSMCVRILRRDIDRIGINRNFSILDPTDQLSVMKTILKEKNIDPKKFEPRTILGTISAAKNELLPPEQFAKRASTYYEKVVSDVYQEYQQRLLRNHSLDFDDLIMTTIQLFDRVPDVLHYYQYKFQYIHIDEYQDTNRAQYTLVKKLAERFQNICAVGDADQSIYRWRGADIQNILSFERDYPNAKVILLEQNYRSTKRILQAANEVIEHNVNRKPKRIWTENPEGKPILYYEAMNEADEAQFVAGRIREAVERGERRYRDFAVLYRTNAQSRVMEEMLLKANIPYQIVGGLKFYDRKEIKDILAYLRVIANPDDDLSLLRIINVPKRGIGASTIDKLVRYAADHELSLFEALGELEMIGLGAKAAGALAAFRSQLEQWTQLQEYVSVTELVEEVLDKSGYREMLKAERTIEAQSRLENLDEFLSVTKHFENVSDDKSLIAFLTDLALISDLDELDGTEQAAEGDAVMLMTLHAAKGLEFPVVFLIGMEEGIFPHNRSLEDDDEMEEERRLAYVGITRAEEELVLTSAQMRTLFGNIQMDPPSRFLNEIPAHLLETASRRQAGASRPAVSRPQASGAVGSWKVGDRANHRKWGIGTVVSVRGGGDDQELDIAFPSPIGIKRLLAKFAPIEKV
# Molecular target: RepD replication initiation protein of Staphylococcus aureus plasmid pC221 (wild type) (Staphylococcus aureus (plasmid pC221)) (UniProt P03065)
# UniProt P03065, sequence (P03065 whole entry): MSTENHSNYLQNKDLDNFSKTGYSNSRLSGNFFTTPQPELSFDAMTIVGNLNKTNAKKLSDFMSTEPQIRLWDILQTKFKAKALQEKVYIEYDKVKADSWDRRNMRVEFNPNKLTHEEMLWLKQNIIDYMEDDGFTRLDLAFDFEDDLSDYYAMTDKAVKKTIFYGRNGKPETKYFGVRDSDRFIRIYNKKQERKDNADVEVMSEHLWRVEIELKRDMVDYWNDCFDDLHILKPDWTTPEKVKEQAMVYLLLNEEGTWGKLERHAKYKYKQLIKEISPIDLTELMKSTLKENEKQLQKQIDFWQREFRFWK
# Assay: AUC
binder,measurement,value
B1,Kd,98.5 nM
